# According to patent US20180086841A1 (Merck Sharp & Dohme, published 2018):
# Where a chain is given by its changes, count along the chain named.
# T1: His9G-tagged cynomolgus CD27 recombinant protein (cynomolgus, limits assumed)
# T1 construct: In-house, transient transfection of HEK293 cells; also called Cyno CD27/His
# T1 chain: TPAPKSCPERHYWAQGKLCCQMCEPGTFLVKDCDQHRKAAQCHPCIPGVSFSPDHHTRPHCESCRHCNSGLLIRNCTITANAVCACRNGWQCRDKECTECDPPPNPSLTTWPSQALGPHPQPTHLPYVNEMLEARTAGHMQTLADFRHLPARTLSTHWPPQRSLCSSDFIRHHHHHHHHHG
# B1: 131A chimera huIgG4 (antibody, V domains shown)
# VH: QIQLVQSGPELKKPGETVKISCKASGYTFTNYGMNWVKQAPGKGLKWMGWINTNTGEPTYAEEFKGRFAFSLETSATTAYLQINNLKNEDTATYFCAREGDAMDYWGQGTSVTVSS
# VL: QIVLTQSPAIMSASPGEKVTMTCSASSSVSYMHWYQQKSGTSPKRWIYDTSKLASGVPARFSGSGSGTSYSLTISSMEAEDAATYYCQQWNSYPFTFGSGTKLEIK
# notes: also called chimeric mouse-human hCD27.131A huIgG4
# B2: Mouse Human Chimera CD27 131A-hIgG1 (antibody, V domains shown)
# VH: B1 VH
# VL: B1 VL
# notes: also called chimeric mouse-human hCD27.131A huIgG1
# B3: hCD27.131A VH9VL9 huIgG1 (antibody, V domains shown)
# VH: EIQLVQSGAEVKKPGASVKVSCKASGYTFTNYGMNWVRQAPGQGLKWMGWINTNTGEPTYAEEFKGRFTFTLDTSASTAYMELSSLRSEDTAVYYCAREGDAMDYWGQGTTVTVSS
# VL: DIQLTQSPSTLSASVGDRVTITCSASSSVSYMHWYQQKPGKAPKRWIYDTSKLASGVPARFSGSGSGTDYTLTISSLQPEDFATYYCQQWNSYPFTFGQGTKLEIK
# B4: hCD27.131A VH9VL9 huIgG4 (antibody, V domains shown)
# VH: B3 VH
# VL: B3 VL
# B5: hCD27.131A VH6VL6 huIgG4 (antibody, V domains shown)
# VH: B3 VH with R38K, A76I
# VL: EIVLTQSPATLSLSPGERATLSCSASSSVSYMHWYQQKPGQAPKRWIYDTSKLASGVPARFSGSGSGTDYSLTISSLEPEDFAVYYCQQWNSYPFTFGQGTKLEIK
# B6: hCD27.131A VH7VL7 huIgG4 (antibody, V domains shown)
# VH: B3 VH with V20I, R38K, S77T, M81L, L83I
# VL: B5 VL with D69S, V84T
# B7: hCD27.131A VH8VL6 huIgG4 (antibody, V domains shown)
# VH: B3 VH with R38K, A76I, S88N
# VL: B5 VL
# B8: hCD27.131A VH6VL8 huIgG1 (antibody, V domains shown)
# VH: B3 VH with R38K, A76I
# VL: B5 VL with L13A, A19V, L77M
# B9: hCD27.131A VH7VL6 huIgG4 (antibody, V domains shown)
# VH: B3 VH with V20I, R38K, S77T, M81L, L83I
# VL: B5 VL
# B10: hCD27.131A VH8VL7 huIgG1 (antibody, V domains shown)
# VH: B3 VH with R38K, A76I, S88N
# VL: B5 VL with D69S, V84T
# B11: hCD27.131A VH6VL7 huIgG4 (antibody, V domains shown)
# VH: B3 VH with R38K, A76I
# VL: B5 VL with D69S, V84T
# B12: hCD27.131A VH7VL8 huIgG1 (antibody, V domains shown)
# VH: B3 VH with V20I, R38K, S77T, M81L, L83I
# VL: B5 VL with L13A, A19V, L77M
# B13: hCD27.131A VH7VL8 huIgG4 (antibody, V domains shown)
# VH: B3 VH with V20I, R38K, S77T, M81L, L83I
# VL: B5 VL with L13A, A19V, L77M
# B14: hCD27.131A VH8VL8 huIgG4 (antibody, V domains shown)
# VH: B3 VH with R38K, A76I, S88N
# VL: B5 VL with L13A, A19V, L77M
# B15: hCD27.131A VH6VL7 huIgG1 (antibody, V domains shown)
# VH: B3 VH with R38K, A76I
# VL: B5 VL with D69S, V84T
# B16: hCD27.131A VH6VL8 huIgG4 (antibody, V domains shown)
# VH: B3 VH with R38K, A76I
# VL: B5 VL with L13A, A19V, L77M
# B17: hCD27.131A VH7VL6 huIgG1 (antibody, V domains shown)
# VH: B3 VH with V20I, R38K, S77T, M81L, L83I
# VL: B5 VL
# B18: hCD27.131A VH8VL7 huIgG4 (antibody, V domains shown)
# VH: B3 VH with R38K, A76I, S88N
# VL: B5 VL with D69S, V84T
# B19: hCD27.131A VH8VL6 huIgG1 (antibody, V domains shown)
# VH: B3 VH with R38K, A76I, S88N
# VL: B5 VL
# B20: hCD27.131A VH7VL7 huIgG1 (antibody, V domains shown)
# VH: B3 VH with V20I, R38K, S77T, M81L, L83I
# VL: B5 VL with D69S, V84T
# Assays:
# [1] = molecular target: T2, His9G-tagged human CD27 recombinant protein (human, UniProt P26842 21-191); assay: SPR Biacore 4000, antibody captured on anti-human Fc, His9G-tagged CD27 injected, 1:1 fit;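 note: Double-referenced SPR (blank anti-Fc surface and buffer injection subtracted), KD derived from association and dissociation rate constants, with human and cynomolgus CD27 as analytes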
# T2 construct: In-house, transient transfection of HEK293 cells; also called Human CD27/His
# From the text: (§1) Flow cell spots modified with anti-human Fc antibody but lacking CD27 antibodies were used as reference. […] The chip surface was regenerated with a 30 second injection of 3M MgCl₂ after each injection cycle.
# (§2) Data were double referenced by subtracting the response from a blank surface and that from a buffer injection and used for analyzing the rate constant of association (kₐ) and dissociation (kd), and the equilibrium dissociation constant KD. The resulting data sets were fitted with a Langmuir 1:1 binding model using the Biacore 4000 BIAevaluation software, version 1.0 (GE/Biacore).
# [2] = molecular target: T1, His9G-tagged cynomolgus CD27 …; assay: as above
# From the text: as §1, §2
# human CD27 [3] = molecular target: T3, human CD27 (human, UniProt P26842 21-260); assay: flow cytometry MFI, CD4+ T cells of human PBMC, N=2 donors
# T3 construct: also called hCD27; HsCD27
# Method: (§3) Labeled cells were washed by re-suspending them in 150 ul of staining buffer (SB) followed by centrifugation at 300 g for 5 minutes. Cells were then resuspended in 100 ul of SB containing primary anti-CD27 antibodies at various concentrations, incubated in the dark at 4° C. for 30 minutes, followed by washing and centrifugation steps as previously described. […] Cells were incubated for 30 minutes at 4° C. in the dark, followed by washing and centrifugation steps. Next, cells were stained with a cocktail of phenotypic antibodies for surface markers (CD3, CD4, CD8, CD11b) and incubated for 30 minutes at 4° C. in the dark, followed by washing and centrifugation steps. […] Samples were acquired in a LSR-Fortessa flow cytometer (BD Biosciences) using the high throughput sampler and data analyzed by FlowJo software (Tree Star Inc).
# human CD27 [4] = molecular target: T3, human CD27; assay: flow cytometry MFI, CD8+ T cells of human PBMC, N=2 donors
# Method: as §3
# human CD27 [5] = molecular target: T3, human CD27; assay: flow cytometry on primary T cells
# human CD27 [6] = molecular target: T3, human CD27; assay: cell ELISA on transfected CHO cells
# Method: (§4) Purified antibodies were assayed for binding to human CD27 expressing CHOK1 cells using a cell-based ELISA format. Human CD27 expressing CHOK1 cells were plated in 96-well tissue-culture plates in 50 μl of DMEM/F12, 10% BCS (bovine calf serum) (CHO-K1 media). Cells were plated at either 2×10⁴ cells/well two days prior to the assay or 4×10⁴ cells/well one day prior to the assay. Media was removed from the wells prior to the assay followed by incubation of mAb in 100 μL fresh culture medium at a starting concentration of 10 μg/mL and 8 step 1:5 serial dilutions (hIgG4 antibodies) or starting concentration of 50 μg/mL and 8 step 1:5 serial dilutions (hIgG1 antibodies). The antibodies were incubated for 30-60 minutes at room temperature and washed 3 times with PBS/0.05% Tween 20 using a cell ELISA washing protocol on the Biotek EL405x Select CW plate washer.
# human CD27 [7] = molecular target: T3, human CD27; assay: cell ELISA on human CD27 CHOK1 cells, hIgG1
# Method: as §4
# human CD27 [8] = molecular target: T3, human CD27; assay: cell ELISA on human CD27 CHOK1 cells, hIgG4
# Method: as §4
Binder,Kd [1] [nM],Kd [2] [nM],EC50 (human CD27 [3]) [nM],EC50 (human CD27 [4]) [nM],EC50 relative to 131AVH6VL6-hIgG1 (human CD27 [5]),fold EC50 against 131AVH6VL6-hIgG1 (human CD27 [6]) [fold],EC50 (human CD27 [7]) [nM],EC50 (human CD27 [8]) [nM]
B1,43.4,31.2,,,,,,
B2,29.2,40.4,0.0664,0.0649,,,,
B3,62.2,105,0.0774,0.0721,≤ 10 % above the EC50 of 131AVH6VL6-hIgG1,≤ 2,0.111,
B4,104,72.9,,,,≤ 2,,0.13
B5,168,73,,,,,,0.101
B6,82.4,36.7,,,,≤ 2,,0.084
B7,132,59.7,,,,≤ 2,,0.097
B8,68.2,56.5,0.126,0.124,≤ 10 % above the EC50 of 131AVH6VL6-hIgG1,≤ 2,0.131,
B9,65.7,58.2,,,,≤ 2,,0.042
B10,63.3,44.1,0.115,0.111,≤ 10 % above the EC50 of 131AVH6VL6-hIgG1,≤ 2,0.262,
B11,108,82,,,,≤ 2,,0.132
B12,44.9,36.5,0.118,0.118,≤ 10 % above the EC50 of 131AVH6VL6-hIgG1,≤ 2,0.144,
B13,58.5,40.1,,,,≤ 2,,0.086
B14,110,96.7,,,,≤ 2,,0.129
B15,71.7,41.9,0.123,0.11,≤ 10 % above the EC50 of 131AVH6VL6-hIgG1,≤ 2,0.13,
B16,99.1,55.2,,,,≤ 2,,0.103
B17,41.3,34.8,0.128,0.127,≤ 10 % above the EC50 of 131AVH6VL6-hIgG1,≤ 2,0.162,
B18,89.3,76.8,,,,≤ 2,,0.088
B19,64.4,46.6,0.124,0.113,≤ 10 % above the EC50 of 131AVH6VL6-hIgG1,≤ 2,0.298,
B20,38.9,31.7,0.113,0.111,≤ 10 % above the EC50 of 131AVH6VL6-hIgG1,≤ 2,0.207,
